Patent US20260049138A1 (Chugai, published 2026)
Positions count from the first letter of the chain named. Names and notes keep the numbering of the source.

B1: CE115HA000 A56K one-arm antibody (antibody, human IgG1, kappa, L234A L235A, N297A, name in Kabat numbering)
heavy: QVQLVESGGGVVQPGRSLRLSCAASGFTFSNAWMHWVRQAPGKGLEWVAQIKAKSNNYKTYYAESVKGRFTISRDDSKNSLYLQMNSLKTEDTAVYYCRYVHYGAYYGVDAWGQGTTVTVSSASTKGPSVFPLAPSSKSTSGGTAALGCLVKDYFPEPVTVSWNSGALTSGVHTFPAVLQSSGLYSLSSVVTVPSSSLGTQTYICNVNHKPSNTKVDKKVEPKSCDKTHTCPPCPAPEAAGGPSVFLFPPKPKDTLMISRTPEVTCVVVDVSHEDPEVKFNWYVDGVEVHNAKTKPREEQYASTYRVVSVLTVLHQDWLNGKEYKCKVSNKALPAPIEKTISKAKGQPREPQVYTLPPSRCELTKNQVSLSCAVKGFYPSDIAVEWESNGQPENNYKTTPPVLDSDGSFFLVSKLTVDKSRWQQGNVFSCSVMHEALHNHYTQKSLSLSPDYKDDDDK
chain: EPKSSDKTHTCPPCPAPELLGGPSVFLFPPKPKDTLMISRTPEVTCVVVDVSHEDPEVKFNWYVDGVEVHNAKTKPREEQYNSTYRVVSVLTVLHQDWLNGKEYKCKVSNKALPAPIEKTISKAKGQPREPQVCTLPPSRDELTKNQVSLWCLVKGFYPSDIAVEWESNGQPENNYKTTPPVLDSDGSFFLYSKLTVDKSRWQQGNVFSCSVMHEALHNRYTQKSLSLSP
light: DIVMTQSPLSLPVTPGEPASISCRSSQSLVHSNRNTYLHWYQQKPGQAPRLLIYKVSNRFSGVPDRFSGSGSGTDFTLKISRVEAEDVGVYYCGQGTQVPYTFGQGTKLEIKRTVAAPSVFIFPPSDEQLKSGTASVVCLLNNFYPREAKVQWKVDNALQSGNSQESVTEQDSKDSTYSLSSTLTLSKADYEKHKVYACEVTHQGLSSPVTKSFNRGEC
B2: CE115HA000 A102P one-arm antibody (antibody, human IgG1, kappa, L234A L235A, N297A, name in Kabat numbering)
heavy: B1 heavy with K59A, A111P
chain: B1 chain
light: B1 light
B3: CE115HA000 D73T one-arm antibody (antibody, human IgG1, kappa, L234A L235A, N297A, name in Kabat numbering)
heavy: B1 heavy with K59A, D76T
chain: B1 chain
light: B1 light
B4: CE115HA000 A60D one-arm antibody (antibody, human IgG1, kappa, L234A L235A, N297A, name in Kabat numbering)
heavy: B1 heavy with K59A, A63D
chain: B1 chain
light: B1 light
B5: CE115HA000 D72E one-arm antibody (antibody, human IgG1, kappa, L234A L235A, N297A, name in Kabat numbering)
heavy: B1 heavy with K59A, D75E
chain: B1 chain
light: B1 light
B6: CE115HA000 D101F one-arm antibody (antibody, human IgG1, kappa, L234A L235A, N297A, name in Kabat numbering)
heavy: B1 heavy with K59A, D110F
chain: B1 chain
light: B1 light
B7: CE115HA000 A56Y one-arm antibody (antibody, human IgG1, kappa, L234A L235A, N297A, name in Kabat numbering)
heavy: B1 heavy with K59Y
chain: B1 chain
light: B1 light
B8: CE115HA000 A99Q one-arm antibody (antibody, human IgG1, kappa, L234A L235A, N297A, name in Kabat numbering)
heavy: B1 heavy with K59A, A105Q
chain: B1 chain
light: B1 light
B9: CE115HA000 A99D one-arm antibody (antibody, human IgG1, kappa, L234A L235A, N297A, name in Kabat numbering)
heavy: B1 heavy with K59A, A105D
chain: B1 chain
light: B1 light
B10: CE115HA000 D73E one-arm antibody (antibody, human IgG1, kappa, L234A L235A, N297A, name in Kabat numbering)
heavy: B1 heavy with K59A, D76E
chain: B1 chain
light: B1 light
B11: CE115HA000 A56L one-arm antibody (antibody, human IgG1, kappa, L234A L235A, N297A, name in Kabat numbering)
heavy: B1 heavy with K59L
chain: B1 chain
light: B1 light
B12: CE115HA000 D72A one-arm antibody (antibody, human IgG1, kappa, L234A L235A, N297A, name in Kabat numbering)
heavy: B1 heavy with K59A, D75A
chain: B1 chain
light: B1 light
B13: CE115HA000 D73K one-arm antibody (antibody, human IgG1, kappa, L234A L235A, N297A, name in Kabat numbering)
heavy: B1 heavy with K59A, D76K
chain: B1 chain
light: B1 light
B14: CE115HA000 A102I one-arm antibody (antibody, human IgG1, kappa, L234A L235A, N297A, name in Kabat numbering)
heavy: B1 heavy with K59A, A111I
chain: B1 chain
light: B1 light
B15: CE115HA000 A60E one-arm antibody (antibody, human IgG1, kappa, L234A L235A, N297A, name in Kabat numbering)
heavy: B1 heavy with K59A, A63E
chain: B1 chain
light: B1 light
B16: CE115HA000 D101A one-arm antibody (antibody, human IgG1, kappa, L234A L235A, N297A, name in Kabat numbering)
heavy: B1 heavy with K59A, D110A
chain: B1 chain
light: B1 light
B17: CE115HA000 A99F one-arm antibody (antibody, human IgG1, kappa, L234A L235A, N297A, name in Kabat numbering)
heavy: B1 heavy with K59A, A105F
chain: B1 chain
light: B1 light
B18: CE115HA000 D73R one-arm antibody (antibody, human IgG1, kappa, L234A L235A, N297A, name in Kabat numbering)
heavy: B1 heavy with K59A, D76R
chain: B1 chain
light: B1 light
B19: CE115HA000 A99S one-arm antibody (antibody, human IgG1, kappa, L234A L235A, N297A, name in Kabat numbering)
heavy: B1 heavy with K59A, A105S
chain: B1 chain
light: B1 light
B20: CE115HA000 D73G one-arm antibody (antibody, human IgG1, kappa, L234A L235A, N297A, name in Kabat numbering)
heavy: B1 heavy with K59A, D76G
chain: B1 chain
light: B1 light
B21: CE115HA000 A99Y one-arm antibody (antibody, human IgG1, kappa, L234A L235A, N297A, name in Kabat numbering)
heavy: B1 heavy with K59A, A105Y
chain: B1 chain
light: B1 light
B22: CE115HA000 A56Q one-arm antibody (antibody, human IgG1, kappa, L234A L235A, N297A, name in Kabat numbering)
heavy: B1 heavy with K59Q
chain: B1 chain
light: B1 light
B23: CE115HA000 D73A one-arm antibody (antibody, human IgG1, kappa, L234A L235A, N297A, name in Kabat numbering)
heavy: B1 heavy with K59A, D76A
chain: B1 chain
light: B1 light
B24: CE115HA000 D101G one-arm antibody (antibody, human IgG1, kappa, L234A L235A, N297A, name in Kabat numbering)
heavy: B1 heavy with K59A, D110G
chain: B1 chain
light: B1 light
B25: CE115HA000 D72V one-arm antibody (antibody, human IgG1, kappa, L234A L235A, N297A, name in Kabat numbering)
heavy: B1 heavy with K59A, D75V
chain: B1 chain
light: B1 light
B26: CE115HA000 D73N one-arm antibody (antibody, human IgG1, kappa, L234A L235A, N297A, name in Kabat numbering)
heavy: B1 heavy with K59A, D76N
chain: B1 chain
light: B1 light
B27: CE115HA000 A102Y one-arm antibody (antibody, human IgG1, kappa, L234A L235A, N297A, name in Kabat numbering)
heavy: B1 heavy with K59A, A111Y
chain: B1 chain
light: B1 light
B28: CE115HA000 A99L one-arm antibody (antibody, human IgG1, kappa, L234A L235A, N297A, name in Kabat numbering)
heavy: B1 heavy with K59A, A105L
chain: B1 chain
light: B1 light
B29: CE115HA000 A99K one-arm antibody (antibody, human IgG1, kappa, L234A L235A, N297A, name in Kabat numbering)
heavy: B1 heavy with K59A, A105K
chain: B1 chain
light: B1 light
B30: CE115HA000 A99T one-arm antibody (antibody, human IgG1, kappa, L234A L235A, N297A, name in Kabat numbering)
heavy: B1 heavy with K59A, A105T
chain: B1 chain
light: B1 light
B31: CE115HA000 A102V one-arm antibody (antibody, human IgG1, kappa, L234A L235A, N297A, name in Kabat numbering)
heavy: B1 heavy with K59A, A111V
chain: B1 chain
light: B1 light
B32: CE115HA000 A56N one-arm antibody (antibody, human IgG1, kappa, L234A L235A, N297A, name in Kabat numbering)
heavy: B1 heavy with K59N
chain: B1 chain
light: B1 light

Biological target: T1, CD3ε homodimer protein (human, UniProt P07766 23-126, limits assumed, sulfo-tag or biotin label in the ECL assays; amine-coupled to the chip in SPR)
T1 construct: also called human CD3ε homodimer protein; CD3 (CD3ε)
T1 sequence (P07766 23-126 limits assumed): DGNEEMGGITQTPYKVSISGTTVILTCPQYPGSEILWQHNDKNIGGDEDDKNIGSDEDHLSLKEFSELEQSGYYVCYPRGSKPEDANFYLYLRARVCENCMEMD
Assay: SPR Biacore T200; CD3ε homodimer on CM4 chip;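 further: Single-residue variant antibodies injected as analyte over CD3ε homodimer immobilized by amine coupling, run at 25 °C in HBS-EP+ buffer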

Row | ratio of amounts bound Z=Y/X (altered form / CE115HA000) | Binder
1 | 1.35 | B1
2 | 0.14 | B2
3 | 0.63 | B3
4 | 0.99 | B4
5 | 1.05 | B5
6 | 0.75 | B6
7 | 0.66 | B7
8 | 0.91 | B8
9 | 0.28 | B9
10 | 0.73 | B10
11 | 0.8 | B11
12 | 1.41 | B12
13 | 0.87 | B13
14 | 1.48 | B14
15 | 0.94 | B15
16 | 1.26 | B16

Row | ratio of amounts bound Z=Y/X (altered form / CE115HA000) | Binder
17 | 1.43 | B17
18 | 1.04 | B18
19 | 0.82 | B19
20 | 1.07 | B20
21 | 1.59 | B21
22 | 0.76 | B22
23 | 0.83 | B23
24 | 1.38 | B24
25 | 1.43 | B25
26 | 0.94 | B26
27 | 0.91 | B27
28 | 1.13 | B28
29 | 1.48 | B29
30 | 0.84 | B30
31 | 1.43 | B31
32 | 0.67 | B32
